Kd data for 1 molecule are collected here from PMC12098869, “An mRNA-display derived cyclic peptide scaffold reveals the substrate binding interactions of an N-terminal cysteine oxidase” (Nature Communications, 2025).

What all share (assay): SPR; biotinylated ADO or ADO mutant immobilised on a Biotin CAP chip (~2500-3000 RU), substrate peptide injected; Biacore T200, 4 °C; 20 mM HEPES pH 7.5, 500 mM NaCl, 10 mM DTT, 0.1% tween-20; 50 µL/minute; multi-cycle or single-cycle mode not given; each cell is one of three independent measurements
Holding throughout (conditions): both partners purified
In general terms: Surface plasmon resonance follows binding to a sensor surface in real time, without labels.

The target in test [1] is T1, ADO-Y212F, N-terminally His-tagged and biotinylated (human, UniProt Q96SZ5 1-270, Y212F, biotin (biotinylated during expression)).
T1 construct: 2-aminoethanethiol dioxygenase (ADO), human, UniProt Q96SZ5, full length, site-directed mutant; source: E. coli Rosetta2(DE3), purified (Ni-NTA, SEC); not shown: biotinylation tag (from the vector pQE80L-Navi), N-terminal, kept
T1 sequence (looked up): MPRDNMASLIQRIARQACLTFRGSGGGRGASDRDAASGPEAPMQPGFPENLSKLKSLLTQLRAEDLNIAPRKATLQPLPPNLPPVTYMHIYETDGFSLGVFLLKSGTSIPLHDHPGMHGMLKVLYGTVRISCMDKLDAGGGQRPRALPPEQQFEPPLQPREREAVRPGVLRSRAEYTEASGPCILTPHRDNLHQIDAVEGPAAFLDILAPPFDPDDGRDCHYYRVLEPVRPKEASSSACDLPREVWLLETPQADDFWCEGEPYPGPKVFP

For test [2], the target named is T2, ADO-D206E, N-terminally His-tagged and biotinylated (human, UniProt Q96SZ5 1-270, D206E, biotin (biotinylated during expression)).
T2 construct: 2-aminoethanethiol dioxygenase (ADO), human, UniProt Q96SZ5, full length, site-directed mutant; source: E. coli Rosetta2(DE3), purified (Ni-NTA, SEC); not shown: biotinylation tag (from the vector pQE80L-Navi), N-terminal, kept
T2 sequence (looked up): T1 sequence (looked up) with D206E, F212Y

Test [3] deals with T3, ADO-C220A, N-terminally His-tagged and biotinylated (human, UniProt Q96SZ5 1-270, C220A, biotin (biotinylated during expression)).
T3 construct: 2-aminoethanethiol dioxygenase (ADO), human, UniProt Q96SZ5, full length, site-directed mutant; source: E. coli Rosetta2(DE3), purified (Ni-NTA, SEC); not shown: biotinylation tag (from the vector pQE80L-Navi), N-terminal, kept
T3 sequence (looked up): T1 sequence (looked up) with F212Y, C220A

Test [4] has as its target T4, ADO-Y212A, N-terminally His-tagged and biotinylated (human, UniProt Q96SZ5 1-270, Y212A, biotin (biotinylated during expression)).
T4 construct: 2-aminoethanethiol dioxygenase (ADO), human, UniProt Q96SZ5, full length, site-directed mutant; source: E. coli Rosetta2(DE3), purified (Ni-NTA, SEC); not shown: biotinylation tag (from the vector pQE80L-Navi), N-terminal, kept
T4 sequence (looked up): T1 sequence (looked up) with F212A

The target in test [5] is T5, ADO-I109A, N-terminally His-tagged and biotinylated (human, UniProt Q96SZ5 1-270, I109A, biotin (biotinylated during expression)).
T5 construct: 2-aminoethanethiol dioxygenase (ADO), human, UniProt Q96SZ5, full length, site-directed mutant; source: E. coli Rosetta2(DE3), purified (Ni-NTA, SEC); not shown: biotinylation tag (from the vector pQE80L-Navi), N-terminal, kept
T5 sequence (looked up): T1 sequence (looked up) with I109A, F212Y

Substitutions are numbered along the chain they refer to. Several values for one entry are separate records, joined by “and”; a condition that tells them apart may be missing. Equal entries are not always repeated.

B1: RGS5(2-15), synthetic peptide corresponding to the methionine excised N-terminus of RGS5, residues 2 to 15 (peptide, UniProt O15539 2-15, looked up)
peptide: CKGLAALPHSCLER
notes: regulator of G-protein signalling 5 (RGS5), residues 2 to 15 (N-terminal Cys exposed); UniProt O15539 is printed for the full-length human protein; also called 14-mer RGS5; source: synthetic peptide
Consider B1, for which the equilibrium dissociation constant (Kd) (in general, a measure of binding affinity in units of concentration) in test [1] is 19.9 µM and 24.5 µM and 29.2 µM; in test [2] it was 1.19 µM and 0.997 µM and 1.06 µM; in test [3], 0.96 µM and 1.12 µM and 1.31 µM; in test [4], 66.5 µM and 90.3 µM and 63.1 µM; in test [5] it was 1.12 µM and 1.24 µM and 1.43 µM.
